# Molecular target: apoa1_human APOA1 (UniProt P02647)
# Sequence (P02647 whole entry): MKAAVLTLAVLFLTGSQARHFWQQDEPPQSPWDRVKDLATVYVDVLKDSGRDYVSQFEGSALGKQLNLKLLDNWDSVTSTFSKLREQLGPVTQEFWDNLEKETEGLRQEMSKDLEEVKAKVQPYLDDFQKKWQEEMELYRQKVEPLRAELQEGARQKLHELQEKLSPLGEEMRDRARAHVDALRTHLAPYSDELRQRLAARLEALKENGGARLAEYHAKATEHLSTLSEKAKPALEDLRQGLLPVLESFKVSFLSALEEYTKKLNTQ
row,Substance,effect of a mutation on the interaction
1,"Phospholipid-transporting ATPase ABCA1 (Homo sapiens), O95477 W590S",increasing interaction strength
2,"Phospholipid-transporting ATPase ABCA1 (Homo sapiens), O95477 R587W",disrupting interaction strength

# Now from value to substance:
row,effect of a mutation on the interaction,Substance
1,disrupting interaction strength,"Phospholipid-transporting ATPase ABCA1 (Homo sapiens), O95477 C1477R"
2,disrupting interaction strength,"Phospholipid-transporting ATPase ABCA1 (Homo sapiens), O95477 S1506L"
3,disrupting interaction strength,"Phospholipid-transporting ATPase ABCA1 (Homo sapiens), O95477 Q597R"

# Source: IntAct's records for PubMed 12084722
